Substitutions are numbered along the chain they refer to.

Common to all, as to test: cell_activity
Series [1] deals with T1, ER3M (in cell) E203W,Q214A,H216G (Homo sapiens) (UniProt P03372).
T1 sequence: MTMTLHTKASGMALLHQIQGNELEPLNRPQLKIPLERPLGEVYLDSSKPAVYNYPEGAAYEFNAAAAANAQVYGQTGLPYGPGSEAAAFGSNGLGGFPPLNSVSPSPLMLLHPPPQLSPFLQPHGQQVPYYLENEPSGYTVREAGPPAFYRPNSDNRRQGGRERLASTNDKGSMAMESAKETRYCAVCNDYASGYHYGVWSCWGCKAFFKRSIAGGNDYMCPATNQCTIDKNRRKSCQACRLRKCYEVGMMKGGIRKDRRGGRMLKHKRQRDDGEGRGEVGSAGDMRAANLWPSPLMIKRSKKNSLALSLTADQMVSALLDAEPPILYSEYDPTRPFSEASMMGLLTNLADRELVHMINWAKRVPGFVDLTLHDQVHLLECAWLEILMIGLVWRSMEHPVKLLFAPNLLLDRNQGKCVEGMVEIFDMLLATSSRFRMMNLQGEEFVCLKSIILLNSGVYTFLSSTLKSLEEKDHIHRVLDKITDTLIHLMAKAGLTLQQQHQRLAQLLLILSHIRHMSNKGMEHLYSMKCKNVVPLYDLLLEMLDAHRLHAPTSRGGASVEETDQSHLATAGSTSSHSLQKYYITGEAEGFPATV
The following applies: HepG2, 10 nM OHT.

The target of series [2] is T2, ER4.3 (in cell) E203W,Q214V,G215R,H216P,N217T (Homo sapiens) (UniProt P03372).
T2 sequence: T1 sequence with A214V, G215R, G216P, N217T
Particulars: HepG2, 10 nM OHT.

Series [3] concerns the target T3, ERα wild type (in cell) (Homo sapiens) (UniProt P03372).
T3 sequence: T1 sequence with W203E, A214Q, G216H
The following applies: HepG2, OHT.

With “GCTAGCGGGCCACTGTGGCCCTGACAACTAGTAAGTCGGGCCACTGTGGCCCGACGTACTATCTCGAGGGGCCACTGTGGCCCTAGAGCTGCAGGTATCGGGCCACTGTGGCCCTAGTTCATTAAAGCTTGGGCCACTGTGGCCCATCAAGATATCGAGATGGGCCACTGTGGCCCATCGACAGGAATTCACGGGCCACTGTGGCCCATCAAGATATCGAGATGGGCCACTGTGGCCCATCGACTCTAGA (double strand) [ATL8/PAL]”, the values for the activity (fold induction) in series [1], in series [2] and in series [3] were 117, 172 and 52, respectively.

The values are drawn from patent US20030199022.
